Reference: patent US20240132578A1

Columns and labels:
Experiment in all cases: cell-based or functional assay
[1] = biological target: HIV-1 envelope glycoprotein (Env) of isolate MG RM-A-005 (HIV-1)
[2] = biological target: HIV-1 JR-CSF envelope glycoprotein (Env), wild type, on pseudovirus (HIV-1 isolate JR-CSF (clade B)) (UniProt P20871)
[3] = biological target: HIV-1 envelope glycoprotein (Env) of isolate 92WR024 (HIV-1)
[4] = biological target: HIV-1 Env of isolate 94KE105 (pseudovirus) (HIV-1)
[5] = biological target: HIV-1 Env of isolate MG RM-D-004 (subtype D) (HIV-1)
[6] = biological target: HIV-1 Env of isolate MGRM-F1-012 (subtype F) (HIV-1)
[7] = biological target: HIV-1 Env of isolate MG RM-D-019 (subtype D) (HIV-1)
[8] = biological target: HIV-1 Env of isolate MGRM-F1-006 (subtype F) (HIV-1)
[9] = biological target: HIV-1 Env of isolate MGRM-C-025 (clade C pseudovirus) (HIV-1)
[10] = biological target: HIV-1 Env of isolate MGRM-F1-010 (subtype F) (HIV-1)
[11] = biological target: HIV-1 envelope glycoprotein (Env) of isolate 92WR020 (HIV-1)
[12] = biological target: HIV-1 Env of isolate MG RM-D-002 (subtype D) (HIV-1)
[13] = biological target: HIV-1 envelope glycoprotein (Env) of isolate 92WR009 (HIV-1)
[14] = biological target: HIV-1 Env of isolate MGRM-Chronic-B-008 (subtype B), on pseudovirus (HIV-1)
[15] = biological target: HIV-1 Env of pseudovirus 98CN009 (HIV-1)
[16] = biological target: HIV-1 Env of isolate MG RM-D-020 (subtype D) (HIV-1)
[17] = biological target: HIV-1 Env of isolate MGRM-Chronic-B-017 (subtype B), on pseudovirus (HIV-1)
[18] = biological target: HIV-1 Env of isolate MGRM-A-012 (pseudovirus) (HIV-1)
[19] = biological target: HIV-1 Env of isolate MGRM-Chronic-B-010 (subtype B), on pseudovirus (HIV-1)
[20] = biological target: HIV-1 Env of isolate 92UG046 (subtype D) (HIV-1)
[21] = biological target: HIV-1 Env of isolate MGRM-F1-004 (subtype F) (HIV-1)
[22] = biological target: HIV-1 Env of isolate MG RM-D-016 (subtype D) (HIV-1)
[23] = biological target: HIV-1 envelope glycoprotein (Env) of isolate MG RM-A-009 (HIV-1)
[24] = biological target: HIV-1 Env of isolate 6535.3 (subtype B), on pseudovirus (HIV-1)
[25] = biological target: HIV-1 92RW020 envelope glycoprotein (Env), on pseudovirus (HIV-1 isolate 92RW020 (clade A))
[26] = biological target: HIV-1 Env of isolate MG RM-C-022 (HIV-1)
[27] = biological target: HIV-1 envelope glycoprotein (Env) of isolate MG RM-A-003 (HIV-1)
[28] = biological target: HIV-1 Env of isolate MG RM-D-003 (subtype D) (HIV-1)
[29] = biological target: HIV-1 Env of isolate MGRM-A-010 (pseudovirus) (HIV-1)
[30] = biological target: HIV-1 Env of isolate MGRM-C-028 (clade C pseudovirus) (HIV-1)
[31] = biological target: HIV-1 envelope glycoprotein (Env) of isolate MG RM-A-007 (HIV-1)
[32] = biological target: HIV-1 Env of isolate MG RM-D-005 (subtype D) (HIV-1)
[33] = biological target: HIV-1 Env of isolate MG RM-D-014 (subtype D) (HIV-1)
[34] = biological target: HIV-1 envelope glycoprotein (Env) of isolate 93WR029 (HIV-1)
[35] = biological target: HIV-1 ADA envelope glycoprotein (Env), on pseudovirus (HIV-1 isolate ADA)
[36] = biological target: HIV-1 Env of isolate MGRM-Chronic-B-012 (subtype B), on pseudovirus (HIV-1)
[37] = biological target: HIV-1 JR-CSF Env I326A (HIV-1 isolate JR-CSF) (UniProt P20871)
[38] = biological target: HIV-1 SF162 envelope protein (Env) on pseudotyped virus (HIV-1 isolate SF162) (UniProt P19550)
[39] = biological target: HIV-1 92BR020 envelope protein (Env) on pseudotyped virus (HIV-1 strain 92BR020)
[40] = biological target: HIV-1 envelope glycoprotein (Env) of isolate 93UG077 (HIV-1)
[41] = biological target: aMLV envelope protein (negative control pseudovirus)
[42] = biological target: HIV-1 JR-CSF Env T297A (HIV-1 (isolate JR-CSF, clade B)) (UniProt P20871)

## 1496_C09 (PG9) (TCN-109) (antibody)
[1]
  IC50: 0.75 µg/mL
[2]
  IC50 (ug/ml), pseudovirus neutralization, TZM-bl assay: 0.006 µg/mL
[3]
  IC50: 0.258 µg/mL
[4]
  IC50 (µg/mL), pseudovirus neutralization: 37.9 µg/mL
[5]
  IC50 (µg/mL), pseudovirus neutralization: 0.06 µg/mL
[6]
  IC50 (µg/mL), pseudovirus neutralization: 0.023 µg/mL
[7]
  IC50 (µg/mL), pseudovirus neutralization: 0.038 µg/mL
[8]
  IC50 (µg/mL), pseudovirus neutralization: 7.25 µg/mL
[9]
  IC50 (µg/mL), single-round pseudovirus neutralization: 0.148 µg/mL
[10]
  IC50 (µg/mL), pseudovirus neutralization: 0.012 µg/mL
[11]
  IC50: 0.141 µg/mL
[12]
  IC50 (µg/mL), pseudovirus neutralization: 0.021 µg/mL
[13]
  IC50: 0.05 µg/mL
[14]
  IC50, single-round pseudovirus neutralization: 8.78 µg/mL
[15]
  IC50, pseudovirus neutralization: 0.371 µg/mL
[16]
  IC50 (µg/mL), pseudovirus neutralization: 1.67 µg/mL
[17]
  IC50, single-round pseudovirus neutralization: 0.688 µg/mL
[18]
  IC50 (µg/mL), pseudovirus neutralization: 19.3 µg/mL
[19]
  IC50, single-round pseudovirus neutralization: 4 ng/mL
[20]
  IC50 (µg/mL), pseudovirus neutralization: 1.86 µg/mL
[21]
  IC50 (µg/mL), pseudovirus neutralization: 0.175 µg/mL
[22]
  IC50 (µg/mL), pseudovirus neutralization: 0.098 µg/mL
[23]
  IC50: 0.023 µg/mL
[24]
  IC50, single-round pseudovirus neutralization: 1.05 µg/mL
[25]
  IC50 (ug/ml), pseudovirus neutralization, TZM-bl assay: 0.1 µg/mL
[26]
  IC50 (µg/mL), pseudovirus neutralization: 0.346 µg/mL
[27]
  IC50: 1.94 µg/mL
[28]
  IC50 (µg/mL), pseudovirus neutralization: 0.033 µg/mL
[29]
  IC50 (µg/mL), pseudovirus neutralization: 0.022 µg/mL
[30]
  IC50 (µg/mL), single-round pseudovirus neutralization: 0.067 µg/mL
[31]
  IC50: 1.06 µg/mL
[32]
  IC50 (µg/mL), pseudovirus neutralization: 1.8 µg/mL
[33]
  IC50 (µg/mL), pseudovirus neutralization: 0.023 µg/mL
[34]
  IC50: 0.69 µg/mL
[35]
  IC50 (ug/ml), pseudovirus neutralization, TZM-bl assay: 0.2 µg/mL
[36]
  IC50, single-round pseudovirus neutralization: 0.2 µg/mL

## 5145_B14 (PGT-127) (antibody)
[37]
  Fold IC50 increase relative to wild-type: 3.5 fold

## 1495_C14 (PGC14) (antibody)
[38]
  IC50, Neutralizing Antibody Assay, Virus/Ab Incubation 1 hour: 6.9 ng/mL
  IC50, Neutralizing Antibody Assay, Virus/Ab Incubation 18 hour: < 2.5 ng/mL
[39]
  IC50, Neutralizing Antibody Assay, Virus/Ab Incubation 1 hour: 1.17 µg/mL
  IC50, Neutralizing Antibody Assay, Virus/Ab Incubation 18 hour: 0.244 µg/mL

## 5141_B17 (PGT-126) (antibody)
[40]
  Neutralization IC80: 0.102 µg/mL
  Neutralization IC90: 0.238 µg/mL
  Neutralization IC95: 0.577 µg/mL
  neutralization IC50: 0.0256 µg/mL
[41]
  Neutralization IC80: > 10 µg/mL
  Neutralization IC90: > 10 µg/mL
  Neutralization IC95: > 10 µg/mL
  neutralization IC50: > 10 µg/mL

## 4858_P08 (PGT-123) (antibody)
[42]
  Fold IC50 increase relative to wild-type: 0.3 fold
[41]
  IC50, pseudovirus neutralization: > 10 µg/mL
  IC80 (pseudovirus neutralization): > 10 µg/mL
  IC90 (pseudovirus neutralization): > 10 µg/mL
  IC95 (pseudovirus neutralization): > 10 µg/mL
